Patent US20220305006A1, “COMPOSITIONS AND METHODS FOR THE TREATMENT OF NEUROLOGICAL DISEASES AND DISORDERS” (The Regents of the University of California, priority 2019, published 2022)

Biological target: BACE1 structure PDB ID: 1XN3 after removal of BACE inhibitor 1 (apo model used in silico) (UniProt P56817)
Test: computed, not measured: MMPBSA (AMBER) on 10000 snapshots of a 50 ns molecular dynamics run

Sequence of BACE1 structure PDB ID: 1XN3 after removal of BACE inhibitor 1 (apo model used in silico) (P56817 58-446 limits assumed): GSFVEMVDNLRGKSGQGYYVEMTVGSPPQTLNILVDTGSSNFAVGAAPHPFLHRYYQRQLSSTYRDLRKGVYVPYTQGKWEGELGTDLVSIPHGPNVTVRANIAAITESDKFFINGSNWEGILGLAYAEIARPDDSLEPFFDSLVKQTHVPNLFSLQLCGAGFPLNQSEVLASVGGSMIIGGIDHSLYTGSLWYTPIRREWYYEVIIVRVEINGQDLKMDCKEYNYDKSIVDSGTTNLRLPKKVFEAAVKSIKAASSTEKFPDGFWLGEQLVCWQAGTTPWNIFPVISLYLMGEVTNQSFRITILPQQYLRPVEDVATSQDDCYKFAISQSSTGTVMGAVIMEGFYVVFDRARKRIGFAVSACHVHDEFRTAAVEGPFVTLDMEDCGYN

| BACE Binding ΔG [kcal/mol] | Binder |
| --- | --- |
| -25.4 | Ac-NLTTYPYFIPL-NH2 [Peptide 65005] |
| -45.1 | Ac-ALYPYFLPISAK-NH2 [Peptide 65007] |
